# Laboratory results as given in PMC2721272 (Journal of molecular biology, 2009).
# Biological target: the molecule itself
# Assay: crystal structure
protein,measurement,value
"Marasmius oreades agglutinin (natural protein, UniProt Q8X123 1-293, looked up, side chain of Cys215 oxidized in about 50% of the molecules in the crystal) MSLRRGIYHIENAGVPSAIDLKDGSSSDGTPIVGWQFTPDTINWHQLWLAEPIPNVADTFTLCNLFSGTYMDLYNGSSEAGTAVNGWQGTAFTTNPHQLWTIKKSSDGTSYKIQNYGSKTFVDLVNGDSSDGAKIAGWTGTWDEGNPHQKWYFNRMSVSSAEAQAAIARNPHIHGTYRGYILDGEYLVLPNATFTQIWKDSGLPGSKWREQIYDCDDFAIAMKAAVGKWGADSWKANGFAIFCGVMLGVNKAGDAAHAYNFTLTKDHADIVFFEPQNGGYLNDIGYDSYMAFY",stoichiometry N,2
